Data reported in patent US20220390449A1, “NEW S[…] FOR THE LATENT FORM OF TOXOPLASMOSIS” (INSERM (INSTITUT NATIONAL DE LA SANTÉ ET DE LA RECHERCHE …, priority 2019, published 2022).
“Also recorded” adds a separate entry of the source.

Columns and labels:
BCLA positive sera = assay: Epitope mapping of BCLA repeat and rBCLA (dot blot peptide assay); format: binding; details: 59 peptides of 15 aa covering res 1089-1275; human sera 1/400
From the text: Epitope mapping of BCLA repeat and rBCLA. Dot blot peptide assays were custom synthetized by JPT Peptide technologies on cellulose membranes with N-Acetyl moieties on the N-terminus. Two sets of membranes were screened: 1) covering the rBCLA region (res 1089-1275) with a total of 59 peptides, each 15 aa long with an overlap of 12 and an offset of 3; 2) covering repeat 4 (res 446-493) with a total of 18 peptides, each 15 aa long with an overlap of 12 and an offset of 3. Dot blot assays were performed as described by the manufacturer. Briefly, the membranes were first activated 5 min in 100% ethanol then washed 3 times 3 min in DPBS-tween. Blocked O.N at 4° C. in DPBS-Tween 0.5% powdered milk then washed again 3*3 min in DPBS-tween. Tested sera were diluted to 1/400 in DPBS-tween 0.1% BSA and incubated for 3 h at RT with the membrane. Following a 3*3 min DPBS-tween wash, membranes were incubated with anti-IgG peroxidase coupled Ab (Sigma A0170) diluted to 1/100 000 for 2 h at RT. […] Dot intensity was integrated using ImageJ. […]. For data analysis of independent dot blots, integrated intensities from every peptide dot [I(p)] were normalised into enrichment factors Fe(p) using the baseline integrated intensity of peptide 59[I(p=59)] which never reacts with any sera. The following can be expressed with the following equation: […]
In order to increase the reactivity score over several independent positive sera blots symbolised as (+), Fe(p) enrichment scores were summed with each other and to subtract the non-specific reactivity, the same sum was performed on the same number of negative sera peptides, symbolised as (−) and subtracted. Peptide reactivity scores can be expressed though the following equation:
Rs(p)=[Σ(Fe(p))^(+)−Σ(Fe(p))^(−)]

[1] = target: T1, His rBCLA (HisTag-rBCLA: C-terminal domain of BCLA, res 1089-1275, with a TEV cleavable N-terminal His-tag) (Toxoplasma gondii); assay: ELISA on coated His rBCLA (conclusion of Example 2)
T1 construct: also called Cter-BCLA; recombinant rBCLA
T1 chain: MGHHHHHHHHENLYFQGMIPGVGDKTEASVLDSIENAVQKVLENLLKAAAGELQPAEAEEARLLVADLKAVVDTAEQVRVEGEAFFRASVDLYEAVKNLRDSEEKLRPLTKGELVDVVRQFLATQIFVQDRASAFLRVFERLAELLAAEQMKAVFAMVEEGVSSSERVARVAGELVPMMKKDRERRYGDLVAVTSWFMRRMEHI

His rBCLA = assay: ELISA binding of purified VHH to immobilized His rBCLA; design: species or system Toxoplasma gondii; details: 200 ng/well antigen, serial dilution of VHH
Experimental: The binding of purified VHH to immobilized His rBCLA was analyzed by ELISA. A MaxiSorp plate was coated with 200 ng/well antigen overnight at 4° C. in PBS. After blocking the wells with 4% MPBS, a serial dilution of the VHH was added to the coated wells and incubated for 1 hour at room temperature. After washing unbound VHH, bound VHH were detected using a mouse-anti-flag (clone M2) and donkey-anti-mouse coupled to HRP. Binding was quantified by measuring colorimetric reaction of OPD+H2O2 at 490 nm. ERB-1G6, ERB-1B11 and ERB-1A12 show a subnanomolar apparent affinity to immobilized His rBCLA. ERB-1F1 and ERB-1F2 show a low nanomolar affinity. ERB-1H4 and ERB-1D7 show a […] apparent affinity to His rBCLA.

[2] = target: T1, His rBCLA (HisTag-rBCLA: C-terminal …); assay: phage display selection on His rBCLA and ELISA, as retold in the description
[3] = target: T1, His rBCLA (HisTag-rBCLA: C-terminal …); assay: ELISA, serial dilution of purified VHH on coated His rBCLA (200 ng/well), anti-flag detection
[4] = target: T1, His rBCLA (HisTag-rBCLA: C-terminal …); assay: ELISA, periplasmic extract on coated His rBCLA

Molecule: QPAEAEEARLLVADL (Synthetic peptide 13 of rBCLA)
- peptide reactivity (total reactivity score), rBCLA region array (BCLA positive sera): stronger zones of reactivity

Molecule: KLRPLTKGELVDVVR (Synthetic peptide 30 of rBCLA)
- peptide reactivity (total reactivity score), rBCLA region array (BCLA positive sera): stronger zones of reactivity

Molecule: EGEAFFRASVDLYEA (Synthetic peptide 22 of rBCLA)
- peptide reactivity (total reactivity score), rBCLA region array (BCLA positive sera): stronger zones of reactivity

B1: VHH ERB-1A12 (VHH)
VHH: EVQLVESGGGLVQAGGSLRLSCAASGRTFSRYFMGWFRQAPGKEREFVAGIIWSGTRTYYVDSVKGRFTISRDNDKRMVYLQMNSLKPEDTAVYYCAAYKEYYGTPAQLYAAASYDYWGQGTQVTVSS
notes: also called VH ERB-1A12; not shown: C-terminal FLAG and His-tag from vector pMEK222
- binding result [1]: binds

B2: ERB-1A12: single domain antibody (VHH) selected on His rBCLA, SEQ ID NO: 59 (protein)
VHH: B1 VHH
modifications: Synthetic VHH ERB-1A12
- apparent affinity to immobilized His rBCLA (His rBCLA): subnanomolar; also recorded: very good

B3: VHH ERB-1B11 (VHH)
VHH: EVQLVESGGGLVQAGGSLRLTCAASGRTFRRSNMAWFRQPPGKERDFVAAIKWSGSSTNYADSVKGRFTISRDNDKNTVYLQMNVLKPEDTGVYYCAQESSLYSNYLPVVSSAYDYWGQGTQVTVSS
notes: also called VH ERB-1 B11; not shown: C-terminal FLAG and His-tag from vector pMEK222
- binding result [2]: binds

B4: ERB-1B11: single domain antibody (VHH) selected on His rBCLA, SEQ ID NO: 58 (protein)
VHH: B3 VHH
modifications: Synthetic VHH ERB-1B11
- apparent affinity to immobilized His rBCLA (His rBCLA): subnanomolar; also recorded: very good

B5: VHH ERB-1G6 (VHH)
VHH: EVQLVESGGGLVQAGGSLGLSCAASGRPGRIFTRNSMAWFRQAPGKEREFVASINWSGTSTSYADSVKGRFAISRDNDKNTVYLQMNSLKPEDTAVYYCAADSALYGSMHKTPADYEYWGQGTQVTVSS
notes: also called VH ERB-1 G6; not shown: C-terminal FLAG and His-tag from vector pMEK222
- binding result [3]: binds

B6: ERB-1G6: single domain antibody (VHH) selected on His rBCLA, SEQ ID NO: 57 (protein)
VHH: B5 VHH
modifications: Synthetic VHH ERB-1G6
- apparent affinity to immobilized His rBCLA (His rBCLA): subnanomolar; also recorded: very good

B7: VHH ERB-1F1 (VHH)
VHH: EVQLVESGGGLVQAGDSLRLSCAASGRTFSRVTMGWFRQAPGKEREFVAGISWSGTRTDYPDSVKGRFTVSRDNAKKTMWLQMSSLRPEDTAVYHCAADSTLYGSAISNNREAYAYWGQGTQVTVSS
notes: also called VH ERB-1F1; not shown: C-terminal FLAG and His-tag from vector pMEK222
- binding result [4]: binds

B8: ERB-1F1: single domain antibody (VHH) selected on His rBCLA, SEQ ID NO: 60 (protein)
VHH: B7 VHH
modifications: Synthetic VHH ERB-1F1
- apparent affinity to immobilized His rBCLA (His rBCLA): low nanomolar

B9: VHH ERB-1F2 (VHH)
VHH: EVQLVESGGGLVQVGGSLRLSCAASGRTFRRNTIGWFRQAPGKEREFVAAISWSGTRTKYADPVKGRFTISRDNDKNTAYLQMNTLKPDDTAVYYCAADGALYGSDVSGLARVYDYWGQGTQVTVSS
notes: also called VH ERB-1F2; not shown: C-terminal FLAG and His-tag from vector pMEK222
- binding result [4]: binds

B10: ERB-1F2: single domain antibody (VHH) selected on His rBCLA, SEQ ID NO: 61 (protein)
VHH: B9 VHH
modifications: Synthetic VHH ERB-1F2
- apparent affinity to immobilized His rBCLA (His rBCLA): low nanomolar

B11: VHH ERB-1H4 (VHH)
VHH: EVQLVESGGGLVQAGGSLRLSCVASGRTFSRYTVGWFRQAPGKEREFVAGISWSGSRTSYADSVKGRFTISRDNDKTTGYLQMNSLKPEDTAVYYCAAITKLYENNIPRSVSDYALWGQGTQVTVSS
notes: also called VH ERB-1H4; not shown: C-terminal FLAG and His-tag from vector pMEK222
- binding result [4]: binds

B12: ERB-1H4: single domain antibody (VHH) selected on His rBCLA, SEQ ID NO: 62 (protein)
VHH: B11 VHH
modifications: Synthetic VHH ERB-1H4
- apparent affinity to immobilized His rBCLA (His rBCLA): molar

B13: VHH ERB-1D7 (VHH)
VHH: KVQLVESGGGLVQAGGSLRLSCAASGRTFSRRGMGWFRQAPGKEREFVATIKWSGTSTDYADSVKGRFTISRDNAKNTVYLQMNNLQPEDTAVYYCAADRQLYRDGYVPLNEYEDWGQGTQVTVSS
notes: also called VH ERB-1D7; not shown: C-terminal FLAG and His-tag from vector pMEK222
- binding result [4]: binds

B14: ERB-1D7: single domain antibody (VHH) selected on His rBCLA, SEQ ID NO: 63 (protein)
VHH: B13 VHH
modifications: Synthetic VHH ERB-1D7
- apparent affinity to immobilized His rBCLA (His rBCLA): molar
